Target: human thrombopoietin receptor (human c-Mpl) (human) (UniProt P40238)
Test: cell-based or functional assay

Q: With “PEG-rHuMGDF (Pegylated Recombinant Human Megakaryocyte Growth and Development Factor) (ligand)” as the substance, how does the UT7/TPO (Max) read?
A: The UT7/TPO (Max) was 100%.

From patent WO2009041734A1
